Measurements as given in the nanobody polyreactivity screen of Harvey et al. (2022).

experiment: yeast display, Sf9 membrane polyspecificity reagent, FACS + sequencing; frameworks hold sequencing errors
Method in brief: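 A nanobody's polyreactivity label depends on the gate it was sorted from. Yeast display cells were stained with 10% biotinylated, detergent-solubilized Sf9 membrane reagent for 1 hour at 4 °C, enriched on streptavidin microbeads and sorted by FACS. The low and high (top ~1%) gates were set on anti-HA fluorescence for expression and streptavidin fluorescence for reagent binding.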

Row | Sequence | polyreactivity (PSR sort gate)
1 | QVQLVESGGGLVQAGGSLRLSCAASGRTFGYYAMGGYRQAPGKERELVAGIRSSGGSTYYADSVKGRFTISRDHAKNTVYLKMNSLIPEDTAVYYCAARLRSYHYRYGYDYWGQGTQVTVSS | high polyreactivity
2 | QVQLVESGGGLVQAGGSLRLSCAASGRTFGYYAMGWYIQAPGKERELVAAISGSGGSTYYADSVKGRFTISRDNAKNTVYLQMNSLKPEDTEVYYCAARYIYYYAFGYNYWGQGTQVTVSS | high polyreactivity
3 | QVQLVESGGGLVQAGGSLRLSCAASGRTFGYYAMGWYRQAPGKERELVAAISKSGGRTYYADSVKGRFTISRDNAKNTVYLQMNSLKPEDTAVYYCAADGGAIVPYYENYYWGQGTQVTVSS | high polyreactivity
4 | QVQLVESGGGLVQAGGSLRLSCAASGRTFGYYAMGWYRQAPGKERELVASISSSGGNTYYADSVKGRFTISRDNAKNTVYLQMNSLKPEDTAVYYCAATYGWWPRDYYYWGQGTQVTVSS | high polyreactivity
5 | QVQLVESGGGLVQAGGSLRLSCAASGRTFGYYAMGWYRQAPGKERELVATITSRGGDTSYADSVKGRFTISRDNAKNTVYLQMKSLKPEDTAVYYCAADRFQGRDDYWGQGTQVTVSS | high polyreactivity
6 | QVQLVESGGGLVQAGGSLRLSCAASGRTFGYYAMGWYRQAPGKERELVATITWSGGSTYYADSVKGRFTISRDNAKNTVYLQMNSLKPEDTAVYYCATGQYGYWYGTENDYWGQGTQVTVSS | low polyreactivity
7 | QVQLVESGGGLVQAGGSLRLSCAASGRTFGYYAMGWYRQAPGNERELVASISQSGGRTYYADSVKGRFTISRDNAKNTVYLQMNSLKPVDTAVYLCNAVYYRRTGYEYWGQGSQVTVSS | high polyreactivity
8 | QVQLVESGGGLVQAGGSLRLSCAASGRTFGYYARGWYRQAPGKERELVADISSGGSTSYADSVKGRFTISRDNAKNTVYLQMNSLKPEDTAVYYCAADSHQNFSGWLRWPRMDYWGQGSQVTVSS | low polyreactivity
9 | QVQLVESGGGLVQAGGSLRLSCAASGRTFGYYGLGWYRQAPGKERELVASINFSSGSTFYADSVKGRFTISRDNAKNTVYLQMNSLKPEDTAVYYCAARTDVGWYSRYGYWGQGTQVTVSS | low polyreactivity
10 | QVQLVESGGGLVQAGGSLRLSCAASGRTFHFDAMGWYRQAPGKERELVASITWSAVRTYYADSVKGRFTISRDNAKYTVYLQMNSLKQEDTAVYYCAIDWDYRLMDYWGQGTQVTVSS | low polyreactivity
11 | QVQLVESGGGLVQAGGSLRLSCAASGRTFHGYALGWYRQAPGKERELVARINWSDGRTYYADSVKGRFTISRDNAKNTVYLQMNSLKPEDTAVYYCAADKTVSYAPAWYYYWGQGTQVTVSS | low polyreactivity
12 | QVQLVESGGGLVQAGGSLRLSCAASGRTFHKYAMGWYRQAPGKEWELVAAISNGGRTYYADSVKGRFTISRDNAKNTVYLQMNSLKPEDTAVYYCNADRTWKGRQYDYWGQGTQVTVSS | high polyreactivity
13 | QVQLVESGGGLVQAGGSLRLSCAASGRTFHRYAMGWYRQAPGKERELVAAITSSGGSTNYADSVKGRFTISRDYAKNTVYLQMNSLKPEDTAVYYCATDRYRYTSHPWSRGFDYWGHGTQVTVSS | low polyreactivity
14 | QVQLVESGGGLVQAGGSLRLSCAASGRTFHRYTMGWYRQAPGKERELVASISRSGGSTYYADSVKGRFTISRDNAKNTVYLQMNSLKPEDTAVYYCAARVSRRGTWYDYWGQGTQVTVSS | high polyreactivity
15 | QVQLVESGGGLVQAGGSLRLSCAASGRTFHTYAIGWYRQAPGKERELVAAITRRGGSTYYADSVKGRFTISRDNAKNTVYLQMNSLKPEDTAVYYSAAPWYGYWGQGTQVTVSS | high polyreactivity
16 | QVQLVESGGGLVQAGGSLRLSCAASGRTFHVYAMGWYRQAPGKERELVAAITWSGDSTYYADSVKGRFTISRDNAKNTVYLQMNSLNTEDTAVYYCAASKFWKYDYWGQGTQVTVSS | low polyreactivity
17 | QVQLVESGGGLVQAGGSLRLSCAASGRTFHYNAMGWYRQAPGKERELVAAISRDGGSTDYADSVKGRFTISRDNAKNTVYLQMNSLKPEDTAVYYCAAPIGKQEFSRDYDYWGQGTQVTVSS | low polyreactivity
18 | QVQLVESGGGLVQAGGSLRLSCAASGRTFIANAMGWYRQAPGKERELVAVITLNGGSTYYADSVKGRFTISRDNAKNTVYLQMNSLKPEDSAVYYCDAGRYYNLRATHGYWRQGTQVTVSS | low polyreactivity
19 | QVQLVESGGGLVQAGGSLRLSCAASGRTFIGYAMAWYRQAPGKEWELVAAISARGGRTYYADSVKGRFTISRDNAKNTVYLQMNSLKPEETAVYYCAAVRVKHSGYDYWGQGTQVTVSS | high polyreactivity
20 | QVQLVESGGGLVQAGGSLRLSCAASGRTFIKNAMGWYRQAPGKERELVATISKRGGRTYYADSVKGRFTISRDNAKNTVYLQMNSLKPEDTAVYYCAARYRKSGLDKYWGQGTQVTVSS | high polyreactivity
21 | QVQLVESGGGLVQAGGSLRLSCAASGRTFIKYAMGWYRPAPGKERALVAAISRNGGSTNYADSVKGRFTISRDNAKNTVDLQMNSLKPEDTAVYYCAAVGTVSSTVGYNYWGQGTQVTVSS | high polyreactivity
22 | QVQLVESGGGLVQAGGSLRLSCAASGRTFINYAKGWYRQAPGKERELVAAITTGGGGTYYADSVKGRFTISRDNAKNTVYLQMNSLKPEDTAVYYCAAEGTGYWGIVGYYYWGQGTQVTVSS | low polyreactivity

Row | Sequence | polyreactivity (PSR sort gate)
23 | QVQLVESGGGLVQAGGSLRLSCAASGRTFIPYAMGWYRQAPGKERELVAAIRTTGGSTNYADSVKGRFTISRDNAKNTVYLQMNSLKPEDTAVYYCAATSRQRPYDYWGQGTQVTVSS | high polyreactivity
24 | QVQLVESGGGLVQAGGSLRLSCAASGRTFIRNVMGWYRQAPGKERELVAGITGGGNTYYADSVKGRFTISRDNAKNTVYLQMNSLKPEDTAVYECAVRYPSYGLSYVRYGYWGQVTQVTVSS | high polyreactivity
25 | QVQLVESGGGLVQAGGSLRLSCAASGRTFISNAMGWYRQAPGKERELVAAITSTGGRTYYADSVKGRFTISRDNAKNTVYLQMNSLKPEDTAVYYCNTGKRRFYSMDYWGQGTQVTVSS | high polyreactivity
26 | QVQLVESGGGLVQAGGSLRLSCAASGRTFISNAMGWYRQAPGKERELVATISRRGGITYYADSVKGRFTISRDNSKNTVYLQMNSLKPEDTAVFYCNARNYPQGIYYWGQGTQVTLSS | high polyreactivity
27 | QVQLVESGGGLVQAGGSLRLSCAASGRTFISYAMGWYRQAPGKERELVAAIDFSDGSTYYADSVKGRFTISRDNAKNTVYLQMNSLKPEDTAVYYCAADDPGLGYWSLTWYDYWGQGTQVTVSS | high polyreactivity
28 | QVQLVESGGGLVQAGGSLRLSCAASGRTFIVNTMRWYRQAPGKDRELVAAITARGGRTYYADSEKGRFTISRDNAKNTVYLQLNSLKPEDTAVYYCNARTPPREAERYYWGQGTQVTVSS | low polyreactivity
29 | QVQLVESGGGLVQAGGSLRLSCAASGRTFIWNAMGWYRQAPGKERELVADISIRGGSTNYADSVKGRFTISRDNAKNTVYLQMNSLKPEDTAVYYCAADYYDSGNDYWGQGTQVTVSS | low polyreactivity
30 | QVQLVESGGGLVQAGGSLRLSCAASGRTFIYNTMGWYRQAPGKERELFAAISSGGSTNYADSVKGRFTISRDNAKNTVYLQMNSLKPEDTAVYYCATQGLSAPFDGFVNSRFDHRGQGTQVTVSS | low polyreactivity
31 | QVQLVESGGGLVQAGGSLRLSCAASGRTFIYNVMGWYRQAPGKERELVAAISQRGGSTYYADSVKGRFTISRDNAKNTVYLQMNSLKPEDTAVYYCAAESYYKKWSDYWGQGTQVTVSS | high polyreactivity
32 | QVQLVESGGGLVQAGGSLRLSCAASGRTFIYYAMGWYRQAPGKERELVATIRGSSTRTYYADSVKGRFTISRDNAKNTVYLQMNSLKPEDTAVYYCAARGTSRKYYYWGQGTQVTVSS | high polyreactivity
33 | QVQLVESGGGLVQAGGSLRLSCAASGRTFIYYDKGWYRQAPGKERDLVAAIRQRGDNTYYADSVKGSFTISRDNAKNTVYLKMKSLKPDDTAVYFCAAVNYLSYRYGYSWSYPGGGYWGQGTQVTVSS | high polyreactivity
34 | QVQLVESGGGLVQAGGSLRLSCAASGRTFKANAMGWYRQAPGKERELVAAISYSGGNTYYADSVKGRFTISRDNAKNTVYLQMNSLKPEDTAVYYCAARRGYGRENQFYSWGQGTQVTVSS | high polyreactivity
35 | QVQLVESGGGLVQAGGSLRLSCAASGRTFKAYAMGWYRQAAGKEREFVPAITKRGGSTYYADSVKGRFTISRDNAKNTVYLQMNSLKPEDTAVYYCAVGLGRYTHTSVPIPSYDYWGQGTQVTVSS | high polyreactivity
36 | QVQLVESGGGLVQAGGSLRLSCAASGRTFKDYAKGWYRHAPGKERELVARINGSGGSTYYADSVKGRFTISRDTAKNSVYLQMNSLKPEDTAVYYCGKDARRRTSILSGGRHYDYWGQGTQVTVSS | low polyreactivity
37 | QVQLVESGGGLVQAGGSLRLSCAASGRTFKDYAMGWDIQEPGKERELVAAISWSGGDTYYADSVKGRFTISRDNAKNTVYLQMNSLKPEDTAVYYCNADPSGVFFYSLEFDYWGQGTQVTVSS | low polyreactivity
38 | QVQLVESGGGLVQAGGSLRLSCAASGRTFKFYAMGWYRQAPGKERELVARITSNSGSTYYADSVKGRFTISRDNAKHTVYLQLNSLKPEETAVYYCNARYGYTYRTFRYDYWGQGSQVTVSS | high polyreactivity
39 | QVQLVESGGGLVQAGGSLRLSCAASGRTFKFYAMGWYRQAPGKERELVARITSNSGSTYYADTVKVRYTISRDNAKNTVYLQMNSLKPEDTAVYYCAARGRYRQFNYWGQGTQVTVSS | high polyreactivity
40 | QVQLVESGGGLVQAGGSLRLSCAASGRTFKFYAMGWYRQAPGKERELVATISSRGGNTFYADSVKGRFTISRDNAKNTVYLQMNSLIPEDTAVYYCAARRGVRKYPSAGYEYWGQGTQVTVSS | high polyreactivity
41 | QVQLVESGGGLVQAGGSLRLSCAASGRTFKKYAMGWYRQAPGKERELVAAITSSGGSTYYADSVKGRFTISRDNAKNTVYLQMNSLKPEDTAVYYCNTVYRHRQRAKYNYWGQGTQVTVSS | high polyreactivity
42 | QVQLVESGGGLVQAGGSLRLSCAASGRTFKKYAMGWYRQAPGKERELVAGITGSGGSTYYADSVKGRFTISRDNAKNTVYLQMNSLKPEDTAVYYCAAYAYGGWHSQDGGNYWGQGTQVTVSS | low polyreactivity
43 | QVQLVESGGGLVQAGGSLRLSCAASGRTFKKYAMGWYRQAPGKVREFVARITYSAGSTYYADSVKGRFTISRDNAKNTVYLQMNSLKPEDTAVYYCARRYASSGPRWYSRHGEYDYWGQGTQVTVSS | low polyreactivity
